Data from the supplement of paper PMC10065799, “High-throughput profiling of sequence recognition by tyrosine kinases and SH2 domains using bacterial peptide display” (eLife, 2023).

target: EPHB2 (UniProt P29323); test: phosphorylation enrichment, bacterial display (enrichment ratio); higher = better substrate or ligand; peptides without Tyr show the background
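Also: 11-residue human phosphosite peptides and single-mutation variants displayed on the E. coli surface, counted by deep sequencing, each peptide's frequency after selection divided by its frequency in the unselected input library; frequency after pTyr selection over input frequency; kinase dosed for 20-30% of maximal phosphorylation in three min.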

EPHB2, sequence (P29323 whole entry, looked up): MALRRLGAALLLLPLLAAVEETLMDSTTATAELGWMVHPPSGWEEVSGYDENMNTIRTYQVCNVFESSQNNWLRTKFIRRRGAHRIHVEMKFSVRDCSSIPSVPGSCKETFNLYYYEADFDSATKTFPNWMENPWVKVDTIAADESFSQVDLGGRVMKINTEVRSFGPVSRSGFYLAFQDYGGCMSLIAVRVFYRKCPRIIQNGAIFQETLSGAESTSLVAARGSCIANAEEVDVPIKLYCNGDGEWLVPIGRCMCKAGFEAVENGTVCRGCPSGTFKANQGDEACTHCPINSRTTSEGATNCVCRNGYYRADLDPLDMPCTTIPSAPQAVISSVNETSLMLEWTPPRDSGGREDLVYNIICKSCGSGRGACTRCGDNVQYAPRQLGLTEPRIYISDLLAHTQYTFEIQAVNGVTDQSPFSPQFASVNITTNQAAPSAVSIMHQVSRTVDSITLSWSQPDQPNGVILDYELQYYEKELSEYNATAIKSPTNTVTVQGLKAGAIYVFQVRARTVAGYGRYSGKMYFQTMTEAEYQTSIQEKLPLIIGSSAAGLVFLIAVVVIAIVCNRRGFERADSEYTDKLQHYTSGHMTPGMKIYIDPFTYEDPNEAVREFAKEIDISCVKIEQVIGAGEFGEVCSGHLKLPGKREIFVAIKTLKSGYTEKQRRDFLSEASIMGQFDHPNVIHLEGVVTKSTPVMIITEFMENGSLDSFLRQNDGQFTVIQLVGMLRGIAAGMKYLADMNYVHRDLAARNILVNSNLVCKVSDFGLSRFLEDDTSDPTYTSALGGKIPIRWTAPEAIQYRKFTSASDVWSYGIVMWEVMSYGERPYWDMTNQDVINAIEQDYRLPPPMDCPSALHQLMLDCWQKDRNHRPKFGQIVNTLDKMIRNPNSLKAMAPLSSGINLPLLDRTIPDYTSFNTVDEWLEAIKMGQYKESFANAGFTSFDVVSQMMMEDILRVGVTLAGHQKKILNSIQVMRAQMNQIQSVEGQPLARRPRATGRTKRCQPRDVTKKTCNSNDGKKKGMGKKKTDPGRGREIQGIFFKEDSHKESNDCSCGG

| Sequence | phosphorylation enrichment |
| --- | --- |
| VEDHYYEGGIG [TKT_Y564] | 0.65 |
| SNNYIYKTLGV [FAM83B_Y639] | 0.328 |
| KGPNVYKKTVN [REV3L_Y1156] | 0.31 |
| AQMAMYFWEMG [TRPM4_Y577] | 0.914 |
| MPAVTYTPAMR [MEGF10_Y895] | 0.328 |
| FRPPFYHRDCM [HGD_Y334_N337D_YF] | 0.659 |
| MANFMYKAGPS [MAML2_Y515_YF] | 0.525 |
| EKKKFYDTKIE [CASP5_Y104_YF] | 0.397 |
| VKMLEYLGKDV [CASP5_Y74] | 0.651 |
| VDEVLYEDSSA [MTHFS_Y197_T202A] | 0.577 |
| TVLEPYTDPFF [ZC3H18_Y367_A368T_YF] | 0.429 |
| RSAGKDDVFLI [MECP2_Y120_Y120D_YF] | 0.75 |
| KRLDGYVLEGR [IGSF9_Y656] | 0.417 |
| AKGMKYLASKK [MET_Y1194] | 0.324 |
| TEALYYTDDPA [ADPRS_Y75_T79P] | 0.882 |
| SHSMRYFSTAV [HLA-C_Y31_D33S] | 0.452 |
| ASTDYNKRGDF [PDHA1_Y243_Y243N] | 0.474 |

| Sequence | phosphorylation enrichment |
| --- | --- |
| TLQSMYGCDVG [HLA-B_Y123] | 0.71 |
| SRLSAYPALEG [CD5_Y465_H461R] | 0.495 |
| FQRLRYIKQLG [SAMHD1_Y146] | 0.592 |
| GKGGSYSKAES [HLA-E_Y341_W346S] | 0.295 |
| PRDSGYSYETI [MAP1B_Y1921_S1917R] | 0.745 |
| VLDCHYPEDEV [C1QBP_Y188] | 0.725 |
| YQCKHYACIRQ [TIMP3_Y182_S179C] | 0.363 |
| PSELYYSKIGP [SMG1_Y2254] | 2.91 |
| VEKGSYSALRA [ABCC2_Y845_L849R] | 0.296 |
| VQEDIYDEFVE [ALDH2_Y332] | 0.715 |
| FDDDDYDTDFV [BLM_Y296] | 0.549 |
| KQVEQYMSFHK [HCN1_Y417] | 0.555 |
| FDDIAYIRKNL [PIK3CA_Y1021_T1025N] | 0.506 |
| HGEAVYSRDCV [XPC_Y676_R671H] | 0.51 |
| GREYIYVDPMQ [PDGFRA_Y574_H570R] | 8.24 |
| SNMPTYSGHFT [GRIN2A_Y1224] | 0.602 |

target: EPHB1 (UniProt P54762); test: as above
Sequence (P54762 whole entry, looked up): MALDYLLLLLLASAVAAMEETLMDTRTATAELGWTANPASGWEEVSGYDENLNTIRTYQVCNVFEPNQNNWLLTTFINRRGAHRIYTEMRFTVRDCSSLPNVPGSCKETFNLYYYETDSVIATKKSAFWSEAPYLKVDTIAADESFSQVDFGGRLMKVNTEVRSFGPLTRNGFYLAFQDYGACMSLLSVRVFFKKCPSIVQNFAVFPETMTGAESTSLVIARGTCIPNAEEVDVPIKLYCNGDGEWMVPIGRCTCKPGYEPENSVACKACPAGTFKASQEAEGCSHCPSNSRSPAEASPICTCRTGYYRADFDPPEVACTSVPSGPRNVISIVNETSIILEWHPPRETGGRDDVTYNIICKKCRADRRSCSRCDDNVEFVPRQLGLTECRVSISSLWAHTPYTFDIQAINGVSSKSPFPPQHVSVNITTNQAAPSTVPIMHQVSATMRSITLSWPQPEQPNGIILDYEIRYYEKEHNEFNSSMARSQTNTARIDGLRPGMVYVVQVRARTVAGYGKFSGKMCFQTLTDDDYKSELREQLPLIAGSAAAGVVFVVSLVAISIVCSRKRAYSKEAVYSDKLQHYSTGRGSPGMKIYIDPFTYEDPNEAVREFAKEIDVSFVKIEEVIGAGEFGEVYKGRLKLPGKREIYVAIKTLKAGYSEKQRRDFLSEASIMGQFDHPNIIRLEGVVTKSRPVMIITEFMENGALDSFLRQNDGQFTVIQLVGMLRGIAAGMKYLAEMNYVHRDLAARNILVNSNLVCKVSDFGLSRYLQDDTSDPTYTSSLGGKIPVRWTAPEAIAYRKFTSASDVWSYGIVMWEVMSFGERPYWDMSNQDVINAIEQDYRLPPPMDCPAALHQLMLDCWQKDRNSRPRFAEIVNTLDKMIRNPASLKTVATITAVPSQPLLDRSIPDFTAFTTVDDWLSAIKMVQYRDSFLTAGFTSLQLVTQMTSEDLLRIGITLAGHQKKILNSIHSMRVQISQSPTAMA

| Sequence | phosphorylation enrichment |
| --- | --- |
| VEDHYYEGGIG [TKT_Y564] | 0.581 |
| SNNYIYKTLGV [FAM83B_Y639] | 0.48 |
| KGPNVYKKTVN [REV3L_Y1156] | 0.307 |
| AQMAMYFWEMG [TRPM4_Y577] | 0.995 |
| MPAVTYTPAMR [MEGF10_Y895] | 0.253 |
| FRPPFYHRDCM [HGD_Y334_N337D_YF] | 0.611 |
| MANFMYKAGPS [MAML2_Y515_YF] | 0.367 |
| EKKKFYDTKIE [CASP5_Y104_YF] | 0.396 |
| VKMLEYLGKDV [CASP5_Y74] | 0.422 |
| VDEVLYEDSSA [MTHFS_Y197_T202A] | 0.637 |
| TVLEPYTDPFF [ZC3H18_Y367_A368T_YF] | 0.463 |
| RSAGKDDVFLI [MECP2_Y120_Y120D_YF] | 0.646 |
| KRLDGYVLEGR [IGSF9_Y656] | 0.356 |
| AKGMKYLASKK [MET_Y1194] | 0.244 |
| TEALYYTDDPA [ADPRS_Y75_T79P] | 1.2 |
| SHSMRYFSTAV [HLA-C_Y31_D33S] | 0.431 |
| ASTDYNKRGDF [PDHA1_Y243_Y243N] | 0.348 |

| Sequence | phosphorylation enrichment |
| --- | --- |
| TLQSMYGCDVG [HLA-B_Y123] | 0.598 |
| SRLSAYPALEG [CD5_Y465_H461R] | 0.348 |
| FQRLRYIKQLG [SAMHD1_Y146] | 0.483 |
| GKGGSYSKAES [HLA-E_Y341_W346S] | 0.3 |
| PRDSGYSYETI [MAP1B_Y1921_S1917R] | 0.448 |
| VLDCHYPEDEV [C1QBP_Y188] | 0.589 |
| YQCKHYACIRQ [TIMP3_Y182_S179C] | 0.371 |
| PSELYYSKIGP [SMG1_Y2254] | 5.13 |
| VEKGSYSALRA [ABCC2_Y845_L849R] | 0.348 |
| VQEDIYDEFVE [ALDH2_Y332] | 0.728 |
| FDDDDYDTDFV [BLM_Y296] | 0.662 |
| KQVEQYMSFHK [HCN1_Y417] | 0.528 |
| FDDIAYIRKNL [PIK3CA_Y1021_T1025N] | 0.409 |
| HGEAVYSRDCV [XPC_Y676_R671H] | 0.473 |
| GREYIYVDPMQ [PDGFRA_Y574_H570R] | 6.9 |
| SNMPTYSGHFT [GRIN2A_Y1224] | 0.636 |

system: Fer (mouse); test: as above

| Sequence | phosphorylation enrichment |
| --- | --- |
| VEDHYYEGGIG [TKT_Y564] | 0.688 |
| SNNYIYKTLGV [FAM83B_Y639] | 0.354 |
| KGPNVYKKTVN [REV3L_Y1156] | 0.429 |
| AQMAMYFWEMG [TRPM4_Y577] | 0.682 |
| MPAVTYTPAMR [MEGF10_Y895] | 0.313 |
| FRPPFYHRDCM [HGD_Y334_N337D_YF] | 0.577 |
| MANFMYKAGPS [MAML2_Y515_YF] | 0.386 |
| EKKKFYDTKIE [CASP5_Y104_YF] | 0.446 |
| VKMLEYLGKDV [CASP5_Y74] | 0.413 |
| VDEVLYEDSSA [MTHFS_Y197_T202A] | 2.08 |
| TVLEPYTDPFF [ZC3H18_Y367_A368T_YF] | 0.438 |
| RSAGKDDVFLI [MECP2_Y120_Y120D_YF] | 0.511 |
| KRLDGYVLEGR [IGSF9_Y656] | 0.323 |
| AKGMKYLASKK [MET_Y1194] | 0.379 |
| TEALYYTDDPA [ADPRS_Y75_T79P] | 1.92 |
| SHSMRYFSTAV [HLA-C_Y31_D33S] | 0.435 |
| ASTDYNKRGDF [PDHA1_Y243_Y243N] | 0.378 |

| Sequence | phosphorylation enrichment |
| --- | --- |
| TLQSMYGCDVG [HLA-B_Y123] | 0.612 |
| SRLSAYPALEG [CD5_Y465_H461R] | 0.391 |
| FQRLRYIKQLG [SAMHD1_Y146] | 0.42 |
| GKGGSYSKAES [HLA-E_Y341_W346S] | 0.307 |
| PRDSGYSYETI [MAP1B_Y1921_S1917R] | 0.777 |
| VLDCHYPEDEV [C1QBP_Y188] | 0.632 |
| YQCKHYACIRQ [TIMP3_Y182_S179C] | 0.399 |
| PSELYYSKIGP [SMG1_Y2254] | 16.3 |
| VEKGSYSALRA [ABCC2_Y845_L849R] | 0.338 |
| VQEDIYDEFVE [ALDH2_Y332] | 0.658 |
| FDDDDYDTDFV [BLM_Y296] | 0.531 |
| KQVEQYMSFHK [HCN1_Y417] | 0.413 |
| FDDIAYIRKNL [PIK3CA_Y1021_T1025N] | 0.361 |
| HGEAVYSRDCV [XPC_Y676_R671H] | 0.664 |
| GREYIYVDPMQ [PDGFRA_Y574_H570R] | 1.21 |
| SNMPTYSGHFT [GRIN2A_Y1224] | 3.39 |

target: Hck (UniProt P08631); test: as above
Sequence (P08631 whole entry, looked up): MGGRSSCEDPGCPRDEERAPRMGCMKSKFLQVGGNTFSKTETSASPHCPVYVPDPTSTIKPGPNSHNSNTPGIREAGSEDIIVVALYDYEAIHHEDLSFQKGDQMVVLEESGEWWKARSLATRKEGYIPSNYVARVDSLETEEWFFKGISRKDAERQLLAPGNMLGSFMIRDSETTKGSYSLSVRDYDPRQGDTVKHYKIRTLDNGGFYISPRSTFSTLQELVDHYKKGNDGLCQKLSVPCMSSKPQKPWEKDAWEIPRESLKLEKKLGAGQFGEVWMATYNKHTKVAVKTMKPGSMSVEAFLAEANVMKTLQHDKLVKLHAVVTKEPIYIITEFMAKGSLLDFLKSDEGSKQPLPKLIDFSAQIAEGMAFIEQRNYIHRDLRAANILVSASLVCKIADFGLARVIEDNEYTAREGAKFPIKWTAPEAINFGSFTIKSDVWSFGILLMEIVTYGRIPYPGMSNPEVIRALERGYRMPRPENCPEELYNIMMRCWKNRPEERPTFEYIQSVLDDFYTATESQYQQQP

| Sequence | phosphorylation enrichment |
| --- | --- |
| VEDHYYEGGIG [TKT_Y564] | 0.636 |
| SNNYIYKTLGV [FAM83B_Y639] | 0.549 |
| KGPNVYKKTVN [REV3L_Y1156] | 0.414 |
| AQMAMYFWEMG [TRPM4_Y577] | 1.36 |
| MPAVTYTPAMR [MEGF10_Y895] | 0.415 |
| FRPPFYHRDCM [HGD_Y334_N337D_YF] | 0.507 |
| MANFMYKAGPS [MAML2_Y515_YF] | 0.39 |
| EKKKFYDTKIE [CASP5_Y104_YF] | 0.503 |
| VKMLEYLGKDV [CASP5_Y74] | 0.491 |
| VDEVLYEDSSA [MTHFS_Y197_T202A] | 0.716 |
| TVLEPYTDPFF [ZC3H18_Y367_A368T_YF] | 0.501 |
| RSAGKDDVFLI [MECP2_Y120_Y120D_YF] | 0.683 |
| KRLDGYVLEGR [IGSF9_Y656] | 0.447 |
| AKGMKYLASKK [MET_Y1194] | 0.394 |
| TEALYYTDDPA [ADPRS_Y75_T79P] | 1.79 |
| SHSMRYFSTAV [HLA-C_Y31_D33S] | 0.452 |
| ASTDYNKRGDF [PDHA1_Y243_Y243N] | 0.332 |

| Sequence | phosphorylation enrichment |
| --- | --- |
| TLQSMYGCDVG [HLA-B_Y123] | 0.525 |
| SRLSAYPALEG [CD5_Y465_H461R] | 0.436 |
| FQRLRYIKQLG [SAMHD1_Y146] | 0.454 |
| GKGGSYSKAES [HLA-E_Y341_W346S] | 0.359 |
| PRDSGYSYETI [MAP1B_Y1921_S1917R] | 0.405 |
| VLDCHYPEDEV [C1QBP_Y188] | 0.629 |
| YQCKHYACIRQ [TIMP3_Y182_S179C] | 0.275 |
| PSELYYSKIGP [SMG1_Y2254] | 18.8 |
| VEKGSYSALRA [ABCC2_Y845_L849R] | 0.351 |
| VQEDIYDEFVE [ALDH2_Y332] | 1.15 |
| FDDDDYDTDFV [BLM_Y296] | 0.538 |
| KQVEQYMSFHK [HCN1_Y417] | 3.62 |
| FDDIAYIRKNL [PIK3CA_Y1021_T1025N] | 0.5 |
| HGEAVYSRDCV [XPC_Y676_R671H] | 2.75 |
| GREYIYVDPMQ [PDGFRA_Y574_H570R] | 2.05 |
| SNMPTYSGHFT [GRIN2A_Y1224] | 1.47 |
